Laboratory results as given in the supplement of paper PMC12042874.
± gives the uncertainty stated by the source.

test: amyloid nucleation score (Sup35N fusion, yeast selection) (log enrichment); library NNK1; higher = more nucleation; inactive = no reads after selection
In short: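 On medium lacking adenine and uracil, psi-negative yeast expressing peptides of 20 random codons fused to Sup35N were grown 7 days at 30°C after a 24-hour induction with 100 μM copper sulfate. Illumina sequencing of input and output plasmid inserts gave the reads, and sequences under 100 input reads were excluded. The nucleation score is the DiMSum log enrichment of output over input reads, centred on the mode score of non-aggregating sequences.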

| Substance | amyloid nucleation score |
| --- | --- |
| IDEVEGIRRFGLWELRLVCP | -0.225 ± 0.28 |
| ISFYTVRWLAAGRRFLISF | 0.224 ± 0.59 |
| EGLNNSLSSYTKDWAQVVLN | -0.079 ± 0.32 |
| TFIFAGDIT | 1.38 ± 0.17 |
| LYIMLLLLLLTSQYT | -0.347 ± 0.63 |
| MLHICCFQSVHLMDWSSH | -0.144 ± 0.67 |
| DSVNRLLSCPINKMLWSNYS | 0.233 ± 0.22 |
| MFSSVLIWKY | 1.12 ± 0.56 |
| YFVMGLIFGLKRLLVLAIRR | -0.53 ± 0.3 |
| MYASRNNFNSFTGYRYSSVS | -0.077 ± 0.21 |
| RMAKYNFVIISVTDDVRQKC | 2.42 ± 0.14 |
| YRESSATGMMSGSDLKRWQV | -2 ± 2.4 |
| PARATMSSLRPTSNLPFFPA | -0.459 ± 1.1 |
| SMVLKTTDAGDNLHSKCNML | -1.09 ± 0.68 |
| VWLPYIFIDTSY | inactive |
| LVMCFVMGMLNLDAGLIMRM | 0.425 ± 0.37 |
| YLTWYNRYCVRYITNYHPMK | 5.96 ± 0.079 |
| SRKVLTPVSPVSVRAARVGH | -0.979 ± 1.9 |
| FRLRL | 0.019 ± 0.83 |
| YDRAWMLRPTLLWLTQTVVR | 2.21 ± 0.13 |
| TFVGLRVSAHRTQWALGDT | -1.51 ± 2.4 |
| ILNGSPKWNGWRTITCSAVS | 0.667 ± 0.44 |

| Substance | amyloid nucleation score |
| --- | --- |
| IHGNDPMLTVGSSMYV | 0.323 ± 0.41 |
| HSVIIALRGCIRIG | 2.25 ± 0.15 |
| YSLLTVASREVSKQSGTSRI | 0.42 ± 1.2 |
| VQIFEKLVQRSSVRQSENLK | 0.037 ± 0.93 |
| DILEIWL | -0.481 ± 0.4 |
| RIYRHIIVTGDNII | 2.57 ± 0.56 |
| FRSELMFSVLPFLGASSVAC | 1.44 ± 0.69 |
| FRKCVGAQGGSGSWNGCPSE | 1.99 ± 0.23 |
| YYCRNPRSMG | -0.134 ± 1.1 |
| IFTFQLLFRNSQRSMYSSVL | 0.651 ± 0.63 |
| WVVIR | -0.369 ± 1.5 |
| WKLPWALSRPVKYRYHEVGR | 0.225 ± 0.43 |
| VPENLVKMSEV | 0.279 ± 0.71 |
| RRSSSFSGIWYVSVGYNASL | -0.316 ± 0.53 |
| YGSGPNDWLYVWGNSLWQKV | -0.106 ± 0.66 |
| KLTCRDSRFVRAIFVMSKSA | -0.458 ± 0.3 |
| ICAPVEIL | -0.176 ± 0.76 |
| PFHLF | 0.831 ± 0.39 |
| SCNDTI | -0.172 ± 1.5 |
| IYGWVHTSMRMRVGTAVLPR | 0.375 ± 0.54 |
| KAEMFNYLTNHTP | -0.033 ± 1.1 |
| KMKLRHTSCRFSREVTDVY | 0.614 ± 0.32 |

| Substance | amyloid nucleation score |
| --- | --- |
| RKSVKRVAKGGNS | 3.82 ± 0.14 |
| WYEWSPFSSTWRSSIVLFNL | 0.417 ± 0.56 |
| YLCRLDLTTDRKSTGLLCGC | 0.022 ± 0.34 |
| FVLRTFQVDNSRQDTTNVST | 0.309 ± 0.48 |
| TFRRFGYTELYCGENSLLEC | -0.036 ± 0.84 |
| RSIMWNLFHDF | 0.789 ± 0.51 |
| RGCRSCAFLIPGLVLCWWKE | 0.069 ± 0.62 |
| QWRSFYTAWVAYRDECPGGF | 2.44 ± 0.15 |
| TVGSIQKAEYWIHGYMATVN | 0.169 ± 0.29 |
| VRYMWFAAGTREVTWSAFFM | -0.014 ± 0.32 |
| GRCLCGLVDDYFYNAYWVLP | -0.555 ± 0.35 |
| SFFDVLFKITWYNRVLMC | 0.362 ± 0.79 |
| LREGTFRLRQVTTFRGYRPW | 0.101 ± 0.37 |
| TNRPLVLTDNVNKSLKMRLP | 0.638 ± 0.27 |
| YCTLRESKPPMDGSM | -0.898 ± 1.7 |
| TFECIIWFLGATVMSMQLFI | 1.93 ± 0.62 |
| QLRNLFHFYTGITDSRFLLH | 1.93 ± 0.52 |
| RVHQGLFDGNKAYQTGIHWN | 0.041 ± 0.25 |
| FLMKMKMSVFVLEYSILECM | -1.12 ± 1.1 |
| IVVSVVTASI | -0.018 ± 0.75 |
| WCTTVRIRLYGSSIWRLFGA | 0.76 ± 0.45 |
| RISLVPRDASPESSTKSSSI | inactive |

| Substance | amyloid nucleation score |
| --- | --- |
| TSSDCLLDSSIFNVGKFWYV | 0.019 ± 0.53 |
| FDLVYACANPTFGINVRTGR | 2.67 ± 0.12 |
| RGIAVWCTN | 0.286 ± 0.97 |
| HSNCVLVVDMLAQWLMRAGD | 0.384 ± 0.79 |
| DSFMAENMWGLFFDKSESPA | -0.517 ± 0.95 |
| ASLKCEKGVCGVFGWSGVGH | -0.687 ± 1.4 |
| WPGFLSRWIRLRLDWSHEV | -1.06 ± 1.1 |
| RGYLMHMTVAKILSVVKKRA | -2.16 ± 2.7 |
| LFKSQFEFFEVGSVEDEFFR | inactive |
| FRFSGHWGETIASRTG | 0.376 ± 0.95 |
| HVMRSSGRHGRRRLT | -0.631 ± 1.1 |
| SDQNWMVPQDGPSPTSYLDD | -0.102 ± 1.5 |
| NSVHWTASGSDSIPTAIESR | 1.58 ± 0.2 |
| FLWIA | -0.012 ± 0.56 |
| MRLTNGSCHFVLF | -0.745 ± 1.7 |
| NVWIYPDSMKSNQTDLG | 1.26 ± 0.74 |
| YLDRSRLMIKCHVHVKYVYY | 7.92 ± 0.048 |
| LNHRGGLVDGFMAAGPRKFR | -0.793 ± 1 |
| VDPAD | 0.553 ± 0.43 |
| GIRPPGKCMGWYLHMKFQSS | -0.391 ± 0.59 |
